# Where two headings read alike, the source gives them in different places. Starred links: 1 amine or outer side, 2 acyl side, 3 side chain; linkers in the order of their positions; H or OH if unused. Positions of bridges follow the written chain, without caps; N, C: chain ends. Non-standard residues stand in square brackets, D forms with d. No end group written: not given here. *: point of attachment. Dab(Ac) = acetyldiaminobutanoic acid, CC(=O)NCC[C@H](N[*:1])C(=O)[*:2]; C(Acm) = acetamidomethyl-cysteine, CC(=O)NCSC[C@H](N[*:1])C(=O)[*:2]; Orn(Ac) = acetylornithine, CC(=O)NCCC[C@H](N[*:1])C(=O)[*:2]; Isobutyryl(2-imidazol-4-yl) = CC(C)(C(=O)*)c1c[nH]cn1; Dap(CONH2) = NC(=O)NC[C@H](N)C(=O)O; Stearoyl = CCCCCCCCCCCCCCCCCC(=O)*; Palmitoyl = CCCCCCCCCCCCCCCC(=O)*; Met(O) = CS(=O)CC[C@H](N)C(=O)O; Myristoyl = CCCCCCCCCCCCCC(=O)*; Nle = CCCC[C@H](N)C(=O)O; DMIA = not defined here; Dab = NCC[C@H](N)C(=O)O; PEG = not defined here; Aib = CC(C)(N)C(=O)O
# B1: AIB2, AIB16, K10(C14) Gluc Amide (peptide)
# peptide: H[Aib]QGTFTSDK(Myristoyl)SKYLD[Aib]RRAQDFVQWLMNT-NH2
# modifications: N-terminus assumed
# SMILES: CCCCCCCCCCCCCC(=O)NCCCC[C@H](NC(=O)[C@H](CC(=O)O)NC(=O)[C@H](CO)NC(=O)[C@@H](NC(=O)[C@H](Cc1ccccc1)NC(=O)[C@@H](NC(=O)CNC(=O)[C@H](CCC(N)=O)NC(=O)C(C)(C)NC(=O)[C@@H](N)Cc1c[nH]cn1)[C@@H](C)O)[C@@H](C)O)C(=O)N[C@@H](CO)C(=O)N[C@@H](CCCCN)C(=O)N[C@@H](Cc1ccc(O)cc1)C(=O)N[C@@H](CC(C)C)C(=O)N[C@@H](CC(=O)O)C(=O)NC(C)(C)C(=O)N[C@@H](CCCNC(=N)N)C(=O)N[C@@H](CCCNC(=N)N)C(=O)N[C@@H](C)C(=O)N[C@@H](CCC(N)=O)C(=O)N[C@@H](CC(=O)O)C(=O)N[C@@H](Cc1ccccc1)C(=O)N[C@H](C(=O)N[C@@H](CCC(N)=O)C(=O)N[C@@H](Cc1c[nH]c2ccccc12)C(=O)N[C@@H](CC(C)C)C(=O)N[C@@H](CCSC)C(=O)N[C@@H](CC(N)=O)C(=O)N[C@H](C(N)=O)[C@@H](C)O)C(C)C
# B2: E16, K20 AIB2, Cys24 Lactam (SEQ ID NO: 517), parent w/o PEG (peptide)
# peptide: H[Aib]QGTFTSDYSKYLDERRAKDFVCWLMNT-NH2
# modifications: lactam 16-20; N-terminus assumed
# SMILES: CSCC[C@H](NC(=O)[C@H](CC(C)C)NC(=O)[C@H](Cc1c[nH]c2ccccc12)NC(=O)[C@H](CS)NC(=O)[C@@H](NC(=O)[C@H](Cc1ccccc1)NC(=O)[C@H](CC(=O)O)NC(=O)[C@@H]1CCCCNC(=O)CC[C@H](NC(=O)[C@H](CC(=O)O)NC(=O)[C@H](CC(C)C)NC(=O)[C@H](Cc2ccc(O)cc2)NC(=O)[C@H](CCCCN)NC(=O)[C@H](CO)NC(=O)[C@H](Cc2ccc(O)cc2)NC(=O)[C@H](CC(=O)O)NC(=O)[C@H](CO)NC(=O)[C@@H](NC(=O)[C@H](Cc2ccccc2)NC(=O)[C@@H](NC(=O)CNC(=O)[C@H](CCC(N)=O)NC(=O)C(C)(C)NC(=O)[C@@H](N)Cc2c[nH]cn2)[C@@H](C)O)[C@@H](C)O)C(=O)N[C@@H](CCCNC(=N)N)C(=O)N[C@@H](CCCNC(=N)N)C(=O)N[C@@H](C)C(=O)N1)C(C)C)C(=O)N[C@@H](CC(N)=O)C(=O)N[C@H](C(N)=O)[C@@H](C)O
# B3: AIB2, AIB16, K10(C18) Gluc Amide (peptide)
# peptide: H[Aib]QGTFTSDK(Stearoyl)SKYLD[Aib]RRAQDFVQWLMNT-NH2
# modifications: N-terminus assumed
# SMILES: CCCCCCCCCCCCCCCCCC(=O)NCCCC[C@H](NC(=O)[C@H](CC(=O)O)NC(=O)[C@H](CO)NC(=O)[C@@H](NC(=O)[C@H](Cc1ccccc1)NC(=O)[C@@H](NC(=O)CNC(=O)[C@H](CCC(N)=O)NC(=O)C(C)(C)NC(=O)[C@@H](N)Cc1c[nH]cn1)[C@@H](C)O)[C@@H](C)O)C(=O)N[C@@H](CO)C(=O)N[C@@H](CCCCN)C(=O)N[C@@H](Cc1ccc(O)cc1)C(=O)N[C@@H](CC(C)C)C(=O)N[C@@H](CC(=O)O)C(=O)NC(C)(C)C(=O)N[C@@H](CCCNC(=N)N)C(=O)N[C@@H](CCCNC(=N)N)C(=O)N[C@@H](C)C(=O)N[C@@H](CCC(N)=O)C(=O)N[C@@H](CC(=O)O)C(=O)N[C@@H](Cc1ccccc1)C(=O)N[C@H](C(=O)N[C@@H](CCC(N)=O)C(=O)N[C@@H](Cc1c[nH]c2ccccc12)C(=O)N[C@@H](CC(C)C)C(=O)N[C@@H](CCSC)C(=O)N[C@@H](CC(N)=O)C(=O)N[C@H](C(N)=O)[C@@H](C)O)C(C)C
# B4: Chimera DMIA1, Cys24 (SEQ ID NO: 519), parent w/o PEG (peptide)
# peptide: [Isobutyryl(2-imidazol-4-yl)]SQGTFTSDYSKYLDEQAAKEFICWLMNT-NH2
# SMILES: CC[C@H](C)[C@H](NC(=O)[C@H](Cc1ccccc1)NC(=O)[C@H](CCC(=O)O)NC(=O)[C@H](CCCCN)NC(=O)[C@H](C)NC(=O)[C@H](C)NC(=O)[C@H](CCC(N)=O)NC(=O)[C@H](CCC(=O)O)NC(=O)[C@H](CC(=O)O)NC(=O)[C@H](CC(C)C)NC(=O)[C@H](Cc1ccc(O)cc1)NC(=O)[C@H](CCCCN)NC(=O)[C@H](CO)NC(=O)[C@H](Cc1ccc(O)cc1)NC(=O)[C@H](CC(=O)O)NC(=O)[C@H](CO)NC(=O)[C@@H](NC(=O)[C@H](Cc1ccccc1)NC(=O)[C@@H](NC(=O)CNC(=O)[C@H](CCC(N)=O)NC(=O)[C@H](CO)NC(=O)C(C)(C)c1c[nH]cn1)[C@@H](C)O)[C@@H](C)O)C(=O)N[C@@H](CS)C(=O)N[C@@H](Cc1c[nH]c2ccccc12)C(=O)N[C@@H](CC(C)C)C(=O)N[C@@H](CCSC)C(=O)N[C@@H](CC(N)=O)C(=O)N[C@H](C(N)=O)[C@@H](C)O
# Tests used:
# Assay in all cases: cell-based or functional assay
# [1] = biological target: T1, glucagon receptor (UniProt P47871 26-477, limits assumed)
# T1 sequence (P47871 26-477 limits assumed): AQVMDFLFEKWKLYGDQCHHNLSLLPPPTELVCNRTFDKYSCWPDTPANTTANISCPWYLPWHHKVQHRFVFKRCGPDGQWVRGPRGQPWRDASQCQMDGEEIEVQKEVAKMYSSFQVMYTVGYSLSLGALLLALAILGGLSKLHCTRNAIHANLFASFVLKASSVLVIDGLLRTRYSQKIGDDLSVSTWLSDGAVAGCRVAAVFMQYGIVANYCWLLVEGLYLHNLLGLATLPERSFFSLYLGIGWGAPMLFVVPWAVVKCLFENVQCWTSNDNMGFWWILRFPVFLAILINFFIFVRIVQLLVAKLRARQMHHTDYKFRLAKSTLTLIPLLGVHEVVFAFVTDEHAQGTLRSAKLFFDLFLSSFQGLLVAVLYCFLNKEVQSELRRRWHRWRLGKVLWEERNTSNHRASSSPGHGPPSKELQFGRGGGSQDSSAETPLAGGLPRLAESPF
# [2] = biological target: T2, GLP-1 receptor (UniProt P43220 24-463, limits assumed)
# [3] = biological target: T1, glucagon receptor; remark: listed apart in the source
# [4] = biological target: T2, GLP-1 receptor; remark: listed apart in the source
# [5] = biological target: T1, glucagon receptor; remark: listed apart in the source
Binder,% Activity of Glucagon [1] [%],% Activity of GLP-1 [2] [%],% Potency Relative to Native [3] [%],% Potency Relative to Native [4] [%],% activity [5] [%],other results
"H[Aib]QGTFTSDK(Palmitoyl)SKYLD[Aib]RRAQDFVQWLMNT-NH2 [AIB2, AIB16, K10(C16) Gluc Amide (SEQ ID NO: 611)]",170,72.3,,,,EC50 [1]: 0.02 nM
B1,77.3,33.3,,,,EC50 [1]: 0.044 nM; EC50 [2]: 0.024 nM
B2,,,108,96.9,,
"HS[Dap(CONH2)]GTFTSDYSKYLDTRRAAEFVAWL[Nle]DE [Peptide J backbone, Dap(urea) at position 3 (SEQ ID NO: 596)]",,,,,13,EC50 [5]: 0.48 nM
"H[Aib]QGTFTSDYSKYLDERRAKDFVC(PEG)WLMNT-NH2 (lactam 16-20; reading uncertain) [E16, K20 AIB2, Cys24 Lactam (SEQ ID NO: 517), parent w/PEG]",,,15.8,31,,
"HXQGTFTSDKSKYLDERRAKDFVQWLMNT (d-Ser at 2; Lys 10-C16 acyl; C-terminal amide) [dS2, E16/K20, K10(C16) Gluc Amide]",44.7,19.5,,,,EC50 [1]: 0.076 nM; EC50 [2]: 0.041 nM
"HS[Met(O)]GTFTSDYSKYLDTRRAAEFVAWL[Nle]DE [Peptide J backbone, M(O) at position 3 (SEQ ID NO: 598)]",,,,,7,EC50 [5]: 0.91 nM
"[Isobutyryl(2-imidazol-4-yl)]SQGTFTSDYSKYLDEQAAKEFIAWLMNC(PEG)-NH2 (reading uncertain) [Chimera DMIA1, Cys29 (SEQ ID NO: 520), parent w/PEG]",,,5.3,27.3,,
"HSQGTFTSDYSKYLD[Aib]RRAADFVAWLMDE [Peptide K backbone, Q at position 3 (SEQ ID NO: 600)]",,,,,15,
"[DMIA]SQGTFTSDK(Myristoyl)SKYLDERRAKDFVQWLMNT-NH2 (reading uncertain) [DMIA1, K10(C14), [E16/K20]-Gluc Amide]",204,30,,,,EC50 [2]: 0.05 nM
"HSQGTFTSDYSKYLDTRRAAEFVAWL[Nle]DE [Peptide J backbone, Q at position 3 (SEQ ID NO: 593)]",,,,,25,
"HXQGTFTSDKSKYLDERRAKDFVQWLMNT (d-Ser at 2; Lys 10-C18 acyl; C-terminal amide) [dS2, E16/K20, K10(C18) Gluc Amide]",196,60,,,,EC50 [2]: 0.025 nM
"[Isobutyryl(2-imidazol-4-yl)]SQGTFTSDYSKYLDEQAAKEFIC(PEG)WLMNT-NH2 (reading uncertain) [Chimera DMIA1, Cys24 (SEQ ID NO: 519), parent w/PEG]",,,6.9,19.3,,
"[Isobutyryl(2-imidazol-4-yl)]SQGTFTSDYSKYLDERRAKDFVC(PEG)WLMNGGPSSGAPPPS-NH2 (lactam 16-20; reading uncertain; also: PEG size not given here) [E16, K20 DMIA1, Gly29,30 Cys24 Cex Lactam (SEQ ID NO: 513), parent w/PEG]",,,12.6,11.3,,
B3,212,88.9,,,,EC50 [1]: 0.016 nM; EC50 [2]: 0.009 nM
B4,,,28.9,64.5,,
"XSQGTFTSDKSKYLDERRAKDFVQWLMNT (DMIA at 1; Lys 10-C18 acyl; [E16/K20]; C-terminal amide) [DMIA1, K10(C18), [E16/K20]-Gluc Amide]",42.3,136,,,,EC50 [2]: 0.011 nM
"HS[Orn(Ac)]GTFTSDYSKYLDTRRAAEFVAWL[Nle]DE [Peptide J backbone, Orn(Ac) at position 3 (SEQ ID NO: 599)]",,,,,7,EC50 [5]: 0.92 nM
"[DMIA]SQGTFTSDYSKYLDERRAKDFVCWLMNGGPSSGAPPPS-NH2 (lactam 16-20; reading uncertain) [E16, K20 DMIA1, Gly29,30 Cys24 Cex Lactam (SEQ ID NO: 513), parent w/o PEG]",,,116,78.3,,
"HXQGTFTSDKSKYLDERRAKDFVQWLMNT (d-Ser at 2; Lys 10-C14 acyl; C-terminal amide) [dS2, E16/K20, K10(C14) Gluc Amide]",21.9,6.3,,,,EC50 [1]: 0.155 nM; EC50 [2]: 0.128 nM
"HS[C(Acm)]GTFTSDYSKYLDTRRAAEFVAWL[Nle]DE [Peptide J backbone, C(Acm) at position 3 (SEQ ID NO: 594)]",,,,,33,EC50 [5]: 0.18 nM
"HS[Dab](Ac)GTFTSDYSKYLD[Aib]RRAADFVAWLMDE [Peptide K backbone, Dab(Ac) at position 3 (SEQ ID NO: 601)]",,,,,86,EC50 [5]: 0.07 nM
"HS[Dab(Ac)]GTFTSDYSKYLDTRRAAEFVAWL[Nle]DE [Peptide J backbone, Dab(Ac) at position 3 (SEQ ID NO: 595)]",,,,,19,EC50 [5]: 0.31 nM
"XSQGTFTSDKSKYLDERRAKDFVQWLMNT (DMIA at 1; Lys 10-C16 acyl; [E16/K20]; C-terminal amide) [DMIA1, K10(C16), [E16/K20]-Gluc Amide]",392,100,,,,
"HSQGTFTSDYSKYLDEQAAKEFIC(PEG)WLMNT-NH2 (reading uncertain) [Chimera Cys24 (SEQ ID NO: 518), parent w/PEG]",,,19.8,29.3,,
